In US20110136733A1 (IPSEN PHARMA S A S, published 2011):
Where no end group is shown, it is not given here. [ ]: non-standard residue; d: D form. The star is where a group is joined. Psu = N-propylsuccinimide on the Cys sulfur (from N-propylmaleimide), CCCN1C(=O)CC(*)C1=O; Ac6c = NC1(C(=O)O)CCCCC1; Nle = CCCC[C@H](N)C(=O)O; Aib = CC(C)(N)C(=O)O

T1: human recombinant GIP receptor (human, UniProt P48546 22-466)
T1 construct: whole, on cells; Membranes of CHO-K1 cells expressing the receptor; also called hGIP receptor
T1 sequence (looked up): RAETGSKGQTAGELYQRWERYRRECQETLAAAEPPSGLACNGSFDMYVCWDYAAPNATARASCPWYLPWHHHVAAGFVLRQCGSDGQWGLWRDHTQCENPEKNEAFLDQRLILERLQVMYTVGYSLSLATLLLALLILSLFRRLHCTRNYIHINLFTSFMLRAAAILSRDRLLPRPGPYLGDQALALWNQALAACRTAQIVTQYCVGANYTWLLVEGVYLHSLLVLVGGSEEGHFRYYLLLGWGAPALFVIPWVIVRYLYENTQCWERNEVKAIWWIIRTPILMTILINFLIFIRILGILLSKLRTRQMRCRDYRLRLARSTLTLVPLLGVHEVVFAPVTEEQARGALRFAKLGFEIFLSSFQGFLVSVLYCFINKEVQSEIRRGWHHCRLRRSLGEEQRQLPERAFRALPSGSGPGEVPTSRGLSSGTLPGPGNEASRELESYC

B1: [Aib^2, A6c^7, Cys(Psu)^41]hGIP(1-42)-OH (peptide)
peptide: Y[Aib]EGTF[Ac6c]SDYSIAMDKIHQQDFVNWLLAQKGKKNDWKHNIC(Psu)Q-OH
notes: The synthesis text lists Fmoc-Ala-OH, not Aib, at the cycle for position 2

Molecular target: T1, human recombinant GIP receptor
Experiment: [125I]GIP competition, membranes of CHO-K1 cells expressing human GIP receptor

| Molecule | Ki [nM] |
| --- | --- |
| (Pro^3, A5c^11, Nle^14)hGIP(1-30)-OH (peptide) | 86.8 |
| YXEGTFISDYSXAMDKIHQQDFVNWLLAQK (Aib at 2 and 12; C-terminal amide) [(Aib^2, 12)hGIP(1-30)-NH2] | 1.84 |
| YXEGTFXSDYSIAMDKIHQQDFVNWLLAQK (Aib at 2; A5c at 7; C-terminal amide) [(Aib^2, A5c^7)hGIP(1-30)-NH2] | 0.27 |
| YXPGTFXSDYSIAMDKIHQQDFVNWLLAQK (Aib at 2; A6c at 7; C-terminal amide) [(Aib^2, Pro^3, A6c^7)hGIP(1-30)-NH2] | 333 |
| Y[Aib]EGTF[Ac6c]SDYSIA[Nle]DKIHQQDFVNWLLAQKGKKNDWKHNI[Ac6c]Q-OH [(Aib^2, A6c^7, 41, Nle^14)hGIP(1-42)-OH] | 1.17 |
| YXEGTFXSDYSIAXDKIHQQDFVNWLLAQK (Aib at 2; A6c at 7; Nle at 14; C-terminal amide) [(Aib^2, A6c^7, Nle^14)hGIP(1-30)-NH2] | 1.04 |
| YXEGTFXSDYSIAXDKIHQQDFVNWLLAQK (Aib at 2; A5c at 7 and 14; C-terminal amide) [(Aib^2, A5c^7, 14)hGIP(1-30)-NH2] | 2.32 |
| YXEXTFISDYSIAMDKIHQQDFVNWLLAQK (Aib at 2 and 4; C-terminal amide) [(Aib^2, 4)hGIP(1-30)-NH2] | 107 |
| YXEGTFXSDYSIAXDKIHQQDFVNWLLAQK (A5c at 2 and 7; Nle at 14; C-terminal amide) [(A5c^2, 7, Nle^14)hGIP(1-30)-NH2] | 25.8 |
| Y[Aib]EGTF[Aib]SDYSIAMDKIHQQDFVNWLLAQKGKKNDWKHNITQ-OH [(Aib^2, 7)hGIP(1-42)-OH] | 0.75 |
| Y[Aib]EGTF[Ac6c]SDYSIAMDKIHQQDFVNWLLAQKGKKNC(Psu)WKHNITQ-OH [[Aib^2, A6c^7, Cys(Psu)^35]hGIP(1-42)-OH] | 288 |
| Y[Aib]EGTF[Ac6c]SDYSIAMDKIHQQDFVNWLLAQKGKKNDWKHC(Psu)ITQ-OH [[Aib^2, A6c^7, Cys(Psu)^39]hGIP(1-42)-OH] | 13.8 |
| Y[Aib]EGTF[Ac6c]SDYSIAMDKIHQQDFVNWLLAQKGC(Psu)KNDWKHNITQ-OH [[Aib^2, A6c^7, Cys(Psu)^32]hGIP(1-42)-OH] | 2.59 |
| Y[Aib]EGTF[Ac6c]SDYSIAMDKIHQQDFVNWLLAQKGKC(Psu)NDWKHNITQ-OH [[Aib^2, A6c^7, Cys(Psu)^33]hGIP(1-42)-OH] | 1.51 |
| Y[Aib]EGTF[Ac6c]SDYSIAMDKIHQQDFVNWLLAQKGKKC(Psu)DWKHNITQ-OH [[Aib^2, A6c^7, Cys(Psu)^34]hGIP(1-42)-OH] | 356 |
| Y[Aib]EGTF[Ac6c]SDYSIAMDKIHQQDFVNWLLAQKGKKNDWKC(Psu)NITQ-OH [[Aib^2, A6c^7, Cys(Psu)^38]hGIP(1-42)-OH] | 5.05 |
| B1 | 63.6 |
| Y[Aib]EGTF[Ac6c]SDYSIAMDKIHQQDFVNWLLAQKGKKNDWKHNC(Psu)TQ-OH [[Aib^2, A6c^7, Cys(Psu)^40]hGIP(1-42)-OH] | 16 |
| Y[Aib]EGTF[Ac6c]SDYSIAMDKIHQQDFVNWLLAQKGKKNDWC(Psu)HNITQ-OH [[Aib^2, A6c^7, Cys(Psu)^37]hGIP(1-42)-OH] | 22.7 |
| Y[Aib]EGTF[Ac6c]SDYSIAMDKIHQQDFVNWLLAQKGKKNDC(Psu)KHNITQ-OH [[Aib^2, A6c^7, Cys(Psu)^36]hGIP(1-42)-OH] | 635 |
| Y[Aib]EGTF[Ac6c]SDYSIAMDKIHQQDFVNWLLAQKC(Psu)KKNDWKHNITQ-OH [[Aib^2, A6c^7, Cys(Psu)^31]hGIP(1-42)-OH] | 75.8 |
| YXEGTFISXYSIAMDKIHQQDFVNWLLAQK (Aib at 2 and 9; C-terminal amide) [(Aib^2, 9)hGIP(1-30)-NH2] | 5.38 |
| YAPGTFISDYXIAXDKIHQQDFVNWLLAQK (A5c at 11; A6c at 14; C-terminal amide) [(Pro^3, A5c^11, A6c^14)hGIP(1-30)-NH2] | 871 |
| YAEGTFISDYXIAXDKIHQQDFVNWLLAQK (D-Ala at 2; A5c at 11 and 14; C-terminal amide, X stands for the non-natural residue) [(D-Ala^2, A5c^11, 14)hGIP(1-30)-NH2] | 0.46 |
| Y[Aib]EGTF[Ac6c]SDYSIA[Nle]DKIHQQDFVNWLL[Aib]QKGKKNDWKHNITQ-OH [(Aib^2, 28, A6c^7, Nle^14)hGIP(1-42)-OH] | 1.22 |
| YXEGTFXSDYSIAXDKIHQQDFVNWLLAQK (A6c at 2 and 7; Nle at 14; C-terminal amide) [(A6c^2, 7, Nle^14)hGIP(1-30)-NH2] | 47 |
| YXEGTFIXDYSIAMDKIHQQDFVNWLLAQKGKKNDWKHNITQ (Aib at 2 and 8; C-terminal free acid) [(Aib^2, 8)hGIP(1-42)-OH] | 16.2 |

| Molecule | Ki [nM] |
| --- | --- |
| YXEGTFXSDYSIAXDKIHQQDFVNWXLAQKGKKNDWKHNITQ (Aib at 2; A6c at 7 and 26; Nle at 14; C-terminal free acid) [(Aib^2, A6c^7, 26, Nle^14)hGIP(1-42)-OH] | 2.54 |
| YXEGTFXSDYSIXXDKIHQQDFVNWLLAQKGKKNDWKHNITQ (Aib at 2 and 13; A6c at 7; Nle at 14; C-terminal free acid) [(Aib^2, 13, A6c^7, Nle^14)hGIP(1-42)-OH] | 0.3 |
| YXEGTFXSDYSIAXDKIHQQDFVNWLXAQKGKKNDWKHNITQ (Aib at 2; A6c at 7 and 27; Nle at 14; C-terminal free acid) [(Aib^2, A6c^7, 27, Nle^14)hGIP(1-42)-OH] | 121 |
| YXEGTFXSDYSIAXDKXHQQDFVNWLLAQKGKKNDWKHNITQ (Aib at 2; A6c at 7 and 17; Nle at 14; C-terminal free acid) [(Aib^2, A6c^7, 17, Nle^14)hGIP(1-42)-OH] | 1.06 |
| YXEGTFISDYXIAMDKIHQQDFVNWLLAQKGKKNDWKHNITQ (Aib at 2 and 11; C-terminal free acid) [(Aib^2, 11)hGIP(1-42)-OH] | 1.2 |
| YXEGTFXSDYSIAMDKIHQQDFVNWLLAQKXKKNDWKHNITQ (Aib at 2 and 31; A6c at 7; C-terminal free acid) [(Aib^2, 31, A6c^7)hGIP(1-42)-OH] | 6.96 |
| YXEGTFISXYSIAMDKIHQQDFVNWLLAQKGKKNDWKHNITQ (Aib at 2 and 9; C-terminal free acid) [(Aib^2, 9)hGIP(1-42)-OH] | 2.66 |
| YXEGTFXSDYSIAXDKIHQQDFVNWLLAQKXKKNDWKHNITQ (Aib at 2 and 31; A6c at 7; Nle at 14; C-terminal free acid) [(Aib^2, 31, A6c^7, Nle^14)hGIP(1-42)-OH] | 2.06 |
| YXEGXFISDYSIAMDKIHQQDFVNWLLAQK (Aib at 2 and 5; C-terminal amide) [(Aib^2, 5)hGIP(1-30)-NH2] | 3.33 |
| YXEGTFXSDYSIAXDKIHQQDFVNWLLAQK (Aib at 2; A5c at 7; Nle at 14; C-terminal amide) [(Aib^2, A5c^7, Nle^14)hGIP(1-30)-NH2] | 4.9 |
| YGEGTFISDYXIAXDKIHQQDFVNWLLAQKGKKNDWKHNITQH (A5c at 11; Nle at 14; C-terminal free acid) [(Gly^2, A5c^11, Nle^14, His^43)hGIP(1-43)-OH] | 0.87 |
| YXEGTFISDYXIAXDKIHQQDFVNWLLAQKGKKNDWKHNITQH (Aib at 2; A5c at 11 and 14; C-terminal free acid) [(Aib^2, A5c^11,14, His^43)hGIP(1-43)-OH] | 0.55 |
| YAEGTFISDYXIAXDKIHQQDFVNWLLAQKGKKNDWKHNITQH (D-Ala at 2; A5c at 11; Nle at 14; C-terminal free acid, X stands for the non-natural residue) [(D-Ala^2, A5c^11, Nle^14, His^43)hGIP(1-43)-OH] | 0.66 |
| YXEGTFISDYSXAMDKIHQQDFVNWLLAQK (Aib at 2; A5c at 12; C-terminal amide) [(Aib^2, A5c^12)hGIP(1-30)-NH2] | 0.98 |
| YXEGTFISDYXIAMDKIHQQDFVNWLLAQK (Aib at 2 and 11; C-terminal amide) [(Aib^2, 11)hGIP(1-30)-NH2] | 0.37 |
| YXPGTFISDYXIAMDKIHQQDFVNWLLAQK (Aib at 2; A5c at 11; C-terminal amide) [(Aib^2, Pro^3, A5c^11)hGIP(1-30)-NH2] | 216 |
| YXEGTFIXDYSIAMDKIHQQDFVNWLLAQK (Aib at 2 and 8; C-terminal amide) [(Aib^2, 8)hGIP(1-30)-NH2] | 15.9 |
| YXEGTFISDYXIAXDKIHQQDFVNWLLAQK (Aib at 2 and 11; Nle at 14; C-terminal amide) [(Aib^2, 11, Nle^14)hGIP(1-30)-NH2] | 1.39 |
| YXPGTFISDYXIAXDKIHQQDFVNWLLAQK (Aib at 2; A5c at 11; A6c at 14; C-terminal amide) [(Aib^2, Pro^3, A5c^11, A6c^14)hGIP(1-30)-NH2] | 34.1 |
| Y[Aib]EGTF[Ac6c]SDYSIAMDKIHQQDFVNWLLAQKGKKNDWKHNI[Aib]Q-OH [(Aib^2, 41, A6c^7)hGIP(1-42)-OH] | 0.87 |
| Y[Aib]EGTF[Ac6c]SDYSIA[Nle]DKIHQQDFVNWLLAQKGKKNDWKHN[Ac6c]TQ-OH [(Aib^2, A6c^7, 40, Nle^14)hGIP(1-42)-OH] | 1.09 |
| YAEGTFISDYXIAMDKIHQQDFVNWLLAQKH (D-Ala at 2; A5c at 11; C-terminal amide, X stands for the non-natural residue) [(D-Ala^2, A5c^11, His^31)hGIP(1-31)-NH2] | 0.87 |
| Y[Aib]EGTF[Ac6c]SDYSIA[Nle]DKIHQQDFVNWLLAQKGKKNDWKHNI[Aib]Q-OH [(Aib^2, 41, A6c^7, Nle^14)hGIP(1-42)-OH] | 1.33 |
| YXEGTFISDYXIAXDKIHQQDFVNWLLAQK (Aib at 2 and 11; A6c at 14; C-terminal amide) [(Aib^2, 11, A6c^14)hGIP(1-30)-NH2] | 0.73 |
| YXEGTFXSDYSIAMDKIHQQDFVNWLLAQK (Aib at 2 and 7; C-terminal amide) [(Aib^2, 7)hGIP(1-30)-NH2] | 0.53 |
| YXEGXFISDYSIAMDKIHQQDFVNWLLAQK (Aib at 2; A5c at 5; C-terminal amide) [(Aib^2, A5c^5)hGIP(1-30)-NH2] | 2.05 |
| Y[Aib]E[Aib]TFISDYSIAMDKIHQQDFVNWLLAQKGKKNDWKHNITQ-OH [(Aib^2, 4)hGIP(1-42)-OH] | 80.1 |
